Measured values: IntAct's records for PubMed 21276203

B1: Serine/threonine-protein kinase OXI1 (Arabidopsis thaliana (Mouse-ear cress)), Q9LSF1 (parent)
chain: MLEGDEKQSRALDFNRLEVLSLLGRGAKGVVFLVRDDDAKLLALKVILKEAIEKKKKGRESEDDEYKRVSFEQGVLSRFDHPLFPSLHGVLATDKVIGYAIDYCPGQNLNSLRKMQSESMFSDEIIRFYAAELVLALDYLHNQGIVYRDLKPDNVMIQENGHLMLIDFDLSTNLAPRTPQPSPSLSKPSPTMKRKKRLFRFTSFCNSGISPQESISVHSSSTLAVSDSSGEKSNSFVGTEEYVAPEVISGDGHDFAVDWWSLGVVLYEMLYGATPFRGSNRKETFYRILSKPPNLTGETTSLRDLIRRLLEKDPSRRINVEEIKGHDFFRGVDWEKVILVSRPPYIPAPDDGGDKGTDVNTKMDVENIVQEIFAARQEREKQSGDNNKNANMKIKDNTSGEWVKGLNNNHDLESDNNFLVF
partner: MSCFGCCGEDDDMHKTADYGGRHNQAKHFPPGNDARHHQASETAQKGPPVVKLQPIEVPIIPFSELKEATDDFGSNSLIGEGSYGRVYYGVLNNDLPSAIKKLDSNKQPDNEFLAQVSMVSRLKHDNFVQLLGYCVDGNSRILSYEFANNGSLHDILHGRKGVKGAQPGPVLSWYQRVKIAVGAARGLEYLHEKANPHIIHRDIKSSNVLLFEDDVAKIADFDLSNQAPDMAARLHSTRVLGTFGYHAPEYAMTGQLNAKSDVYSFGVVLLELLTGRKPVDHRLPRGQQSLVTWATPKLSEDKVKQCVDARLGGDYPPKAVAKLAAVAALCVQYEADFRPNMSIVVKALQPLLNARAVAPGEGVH

Variants of: B1
Conditions: with y2706, O80719

Variant | effect of a mutation on the interaction
MLEGDEKQSRALDFNRLEVLSLLGRGAKGVVFLVRDDDAKLLALRVILKEAIEKKKKGRESEDDEYKRVSFEQGVLSRFDHPLFPSLHGVLATDKVIGYAIDYCPGQNLNSLRKMQSESMFSDEIIRFYAAELVLALDYLHNQGIVYRDLKPDNVMIQENGHLMLIDFDLSTNLAPRTPQPSPSLSKPSPTMKRKKRLFRFTSFCNSGISPQESISVHSSSTLAVSDSSGEKSNSFVGTEEYVAPEVISGDGHDFAVDWWSLGVVLYEMLYGATPFRGSNRKETFYRILSKPPNLTGETTSLRDLIRRLLEKDPSRRINVEEIKGHDFFRGVDWEKVILVSRPPYIPAPDDGGDKGTDVNTKMDVENIVQEIFAARQEREKQSGDNNKNANMKIKDNTSGEWVKGLNNNHDLESDNNFLVF [K45R] | disrupting interaction
